45 molecules from patent US20080026996A1, “Selective Vpac2 Receptor Reptide Agonists” (ELI LILLY AND COMPANY, priority 2004, published 2008) can be followed below.

Where no end group is shown, it is not given here. [ ]: non-standard residue; d: D form. The star is where a group is joined. Hexanoyl = CCCCCC(=O)*; Aib = CC(C)(N)C(=O)O

The test addresses T1, human VPAC2 receptor (human, UniProt P41587 24-438).
T1 sequence (looked up): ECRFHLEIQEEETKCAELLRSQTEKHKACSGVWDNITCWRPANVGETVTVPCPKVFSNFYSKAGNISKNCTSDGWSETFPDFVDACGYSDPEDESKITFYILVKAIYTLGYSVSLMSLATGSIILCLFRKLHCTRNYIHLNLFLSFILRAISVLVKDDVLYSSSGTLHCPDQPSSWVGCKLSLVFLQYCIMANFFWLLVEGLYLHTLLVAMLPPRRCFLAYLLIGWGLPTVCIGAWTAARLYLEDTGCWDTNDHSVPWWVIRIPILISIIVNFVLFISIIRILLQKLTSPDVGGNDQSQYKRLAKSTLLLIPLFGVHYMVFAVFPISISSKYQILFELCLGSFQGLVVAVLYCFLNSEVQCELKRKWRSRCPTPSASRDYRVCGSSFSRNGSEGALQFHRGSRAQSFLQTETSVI
In words: cell-based or functional assay.

Consider Hexanoyl-HSDAVFTDNYTRLRK(Ac)QVAAK(Ac)KYLQSIKNKRYGGPSSGAPPPS [P193], for which the “EC50 cAMP, Alpha Screen” value is 0.18 nM.

For the molecule HSDAVFTDNYTREKEKVAAKKYLQSIKNKRYGGPSSGAPPPS [P87], the “EC50 cAMP, Alpha Screen” value is over 10000 nM. In the case of Hexanoyl-H[dA]DAVFTDNYTRLRKQVAAKKYLQSIKNKRYGGPSSGAPPPS [P101], the “EC50 cAMP, Alpha Screen” value was determined as 0.21 nM. Turning to Hexanoyl-HSDAVFTDNYTRLRKQVAAKKTLQSIKNKRYGGPSSGAPPPS [P131], the “EC50 cAMP, Alpha Screen” value came out at 22.3 nM. For Hexanoyl-HSDAVFTDNYTRLRRQVAARRYLQSIRNRRYGGPSSGAPPPS [P98], the “EC50 cAMP, Alpha Screen” value worked out at 0.15 nM.

Consider Hexanoyl-HSDAVFTDNYTRLRKQVALKKYLQSIKNKRYGGPSSGAPPPS [P155], for which the “EC50 cAMP, Alpha Screen” value was found to be 0.24 nM.

HSDAVFTDNYTRAAAKVAAKKYLQSIKNKRYGGPSSGAPPPS [P88]: the “EC50 cAMP, Alpha Screen” value worked out at 1720 nM and the “EC50 cAMP, DiscoveRx” value is over 1000 nM. On to Hexanoyl-HSDAVFTDNYTRLRKQVAAYKYLQSIKNKRYGGPSSGAPPPS [P147], for which the “EC50 cAMP, Alpha Screen” value turned out to be 0.13 nM. The same measure, in the same setting: next, Hexanoyl-HSDAVFTDNYTRLRKQVAAKKYLQSFKNKRYGGPSSGAPPPS [P106]: 0.16 nM. In the case of Hexanoyl-HSDAVFTDNYTRLRKQVAAKKYLQLIKNKRYGGPSSGAPPPS [P114], the “EC50 cAMP, Alpha Screen” value amounted to 0.14 nM. The same measure, in the same setting: the value for Hexanoyl-HSDAVFTDNYTRLRKQVAAKKLLQSIKNKRYGGPSSGAPPPS [P132] was 3.1 nM; that for Hexanoyl-HSDAVFTDNYTRLRKQVAAKKYLQQIKNKRYGGPSSGAPPPS [P124] was 0.09 nM; that for Hexanoyl-HSDAVFTDNYTRLRKQVAATKYLQSIKNKRYGGPSSGAPPPS [P152] was 0.17 nM. In the case of Hexanoyl-HSDAVFTDNYTRLRKQVAAKKILQSIKNKRYGGPSSGAPPPS [P133], the “EC50 cAMP, Alpha Screen” value came out at 2.7 nM.

On to Hexanoyl-HSDAVFTDNYTRLRKQVAALKYLQSIKNKRYGGPSSGAPPPS [P151], for which the “EC50 cAMP, Alpha Screen” value is 0.07 nM. Still for that read-out and setting: the value for Hexanoyl-HSDAVFTDNYTRLRKQVAAKKFLQSIKNKRYGGPSSGAPPPS [P130] was 0.77 nM; that for Hexanoyl-HSDAVFTDNYTRLRKQVAAKKYLQSYKNKRYGGPSSGAPPPS [P111] was 0.34 nM; that for Hexanoyl-HSDAVFTDNYTRLRKQVAAKKVLQSIKNKRYGGPSSGAPPPS [P134] was 5.47 nM. With HSDAVFTDNYTRAKAKVAAKKYLQSIKNKRYGGPSSGAPPPS [P94], the “EC50 cAMP, Alpha Screen” value came out at 696 nM and the “EC50 cAMP, DiscoveRx” value was over 1000 nM. Consider Hexanoyl-HSDAVFTDNYTRLRKQVAAVKYLQSIKNKRYGGPSSGAPPPS [P146], for which the “EC50 cAMP, Alpha Screen” value worked out at 0.17 nM. For the molecule HSDGVFTDNYTRLRKQVAAKKYLQSIKNKRYGGPSSGAPPPS [P102], the “EC50 cAMP, Alpha Screen” value was 27.4 nM. Same read-out and setting: the value for Hexanoyl-HSDAVFTDNYTRLRKQVAAKKYLQWIKNKRYGGPSSGAPPPS [P117] was 0.2 nM; that for Hexanoyl-HSDAVFTDNYTRLRKQVAAKKYLQSLKNKRYGGPSSGAPPPS [P107] was 0.12 nM. Take Hexanoyl-HSDAVFTDNYTRLRAQLAAQKYLQSIKNKRYGGPSSGAPPPS [P142]: the “EC50 cAMP, Alpha Screen” value worked out at 0.15 nM. Take Hexanoyl-HSDAVFTDNYTKLKKQVAAKKYLQSIKNKKYGGPSSGAPPPS [P103]: the “EC50 cAMP, Alpha Screen” value came out at 0.12 nM.

As to Hexanoyl-HSDAVFTDNYTRLRKQVAAIKYLQSIKNKRYGGPSSGAPPPS [P149], the “EC50 cAMP, Alpha Screen” value was 0.41 nM. Same read-out and setting: next, Hexanoyl-HSDAVFTDNYTRLRKQVAAKKYLQNIKNKRYGGPSSGAPPPS [P125]: 0.14 nM; Hexanoyl-HSDAVFTDNYTRLRKQVAAKKYLQSTKNKRYGGPSSGAPPPS [P108]: 0.27 nM. HSDAVFTDNYTRLLAKVAAKKYLQSIKNKRYGGPSSGAPPPS [P89]: the “EC50 cAMP, Alpha Screen” value was 1.23 nM and the “EC50 cAMP, DiscoveRx” value came out at 0.7 nM.

For Hexanoyl-HSDAVFTDNYTRLRAQVAAQKYLQSIKNKRYGGPSSGAPPPS [P138], the “EC50 cAMP, Alpha Screen” value amounted to 0.45 nM. Still for that read-out and setting: the value for Hexanoyl-HSDAVFTDNYTRLRAQVAAKKYLQSIKNKRYGGPSSGAPPPS [P139] was 0.2 nM; that for Hexanoyl-HSDAVFTDNYTRLRKQVAAWKYLQSIKNKRYGGPSSGAPPPS [P153] was 0.11 nM.

For the molecule Hexanoyl-HSDAVFTDNYTRLRKQVAAKKYLQFIKNKRYGGPSSGAPPPS [P112], the “EC50 cAMP, Alpha Screen” value was determined as 0.16 nM. As to Hexanoyl-HSDAVFTDNYTRLRKQVAAKKYLQIIKNKRYGGPSSGAPPPS [P113], the “EC50 cAMP, Alpha Screen” value is 0.26 nM. Take Hexanoyl-HSDAVFTDNYTRLRKQVAAKKYLQSVKNKRYGGPSSGAPPPS [P109]: the “EC50 cAMP, Alpha Screen” value was 0.22 nM. The same measure, in the same setting: next, Hexanoyl-HSDAVFTDNYTRLRKQVAAKKYLQVIKNKRYGGPSSGAPPPS [P116]: 0.12 nM; Hexanoyl-HSDAVFTDNYTRLKAQVAAKKYLQSIKNKRYGGPSSGAPPPS [P141]: 0.72 nM; Hexanoyl-HSDAVFTDNYTRLRKQVAAKKWLQSIKNKRYGGPSSGAPPPS [P129]: 0.49 nM. As for Hexanoyl-HSDAVFTDNYTRLRKQVAAKKYLQYIKNKRYGGPSSGAPPPS [P127], the “EC50 cAMP, Alpha Screen” value worked out at 0.22 nM. Still for that read-out and setting: the value for Hexanoyl-HSDAVFTDNYTRLRKQVAAKKYLQSWKNKRYGGPSSGAPPPS [P110] was 0.13 nM; that for Hexanoyl-HSDAVFTDNYTRLRKQVAAFKYLQSIKNKRYGGPSSGAPPPS [P148] was 0.1 nM; that for Hexanoyl-HVDAVFTDNYTRLRKQVAAKKYLQSIKNKRYGGPSSGAPPPS [P99] was 0.14 nM. For Hexanoyl-HSDAVFTDNYTRLRKQVAAKKYLQS[Aib]KNKRYGGPSSGAPPPS (ends and bridges not checked) [P188], the “EC50 cAMP, Alpha Screen” value amounted to 0.32 nM. For the molecule MHSDAVFTDQYTRLRKQVAAKKYLQSIKQKRYGGPSSGAPPPS (N-terminal methionine added (M-)) [P100], the “EC50 cAMP, Alpha Screen” value is 0.28 nM. On the same count and under the same terms, next, IHSDAVFTDNYTRLRKQVAAKKYLQSIKNKRYGGPSSGAPPPS (N-terminal isoleucine added (I-)) [P105]: 8.33 nM.
